Target: Tie2 receptor on HUVEC (human, UniProt Q02763 23-1124)
Test: cell-based or functional assay

Chain of Tie2 receptor on HUVEC (Q02763 23-1124): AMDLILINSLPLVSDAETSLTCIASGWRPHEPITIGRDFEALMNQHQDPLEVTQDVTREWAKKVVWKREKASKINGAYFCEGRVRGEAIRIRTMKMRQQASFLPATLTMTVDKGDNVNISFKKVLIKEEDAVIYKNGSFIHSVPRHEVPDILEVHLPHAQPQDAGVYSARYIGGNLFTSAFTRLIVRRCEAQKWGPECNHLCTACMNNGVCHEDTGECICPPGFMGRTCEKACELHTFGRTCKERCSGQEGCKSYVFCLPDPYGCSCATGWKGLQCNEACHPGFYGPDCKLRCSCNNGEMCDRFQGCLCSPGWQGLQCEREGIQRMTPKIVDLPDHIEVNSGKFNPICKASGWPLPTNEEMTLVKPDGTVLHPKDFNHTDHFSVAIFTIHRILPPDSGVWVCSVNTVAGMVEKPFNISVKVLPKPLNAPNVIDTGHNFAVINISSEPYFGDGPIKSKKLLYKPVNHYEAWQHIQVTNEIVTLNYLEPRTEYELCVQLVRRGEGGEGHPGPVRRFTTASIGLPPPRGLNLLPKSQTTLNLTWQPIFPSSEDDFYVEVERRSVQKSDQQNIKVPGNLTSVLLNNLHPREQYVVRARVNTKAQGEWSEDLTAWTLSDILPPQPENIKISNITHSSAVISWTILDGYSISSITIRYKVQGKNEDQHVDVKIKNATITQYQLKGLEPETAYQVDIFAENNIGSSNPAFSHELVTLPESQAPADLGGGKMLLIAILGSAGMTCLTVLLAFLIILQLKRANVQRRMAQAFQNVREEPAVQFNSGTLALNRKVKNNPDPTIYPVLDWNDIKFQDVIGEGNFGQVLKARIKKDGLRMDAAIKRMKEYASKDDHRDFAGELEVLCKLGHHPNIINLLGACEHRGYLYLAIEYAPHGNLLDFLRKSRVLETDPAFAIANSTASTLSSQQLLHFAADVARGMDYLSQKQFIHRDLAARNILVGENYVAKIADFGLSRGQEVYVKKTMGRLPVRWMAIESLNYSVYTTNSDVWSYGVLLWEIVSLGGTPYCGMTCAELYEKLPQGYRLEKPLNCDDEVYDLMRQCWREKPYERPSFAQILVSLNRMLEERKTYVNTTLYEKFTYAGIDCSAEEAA

- phospho-AKT (pAKT) EC50 in HUVEC treated for 20 minutes: 87 ng/mL
B1: ANG1-C4BP (ligand)
chain: KPFRDCADVYQAGFNKSGIYTIYINNMPEPKKVFCNMDVNGGGWTVIQHREDGSLDFQRGWKEYKMGFGNPSGEYWLGNEFIFAITSQRQYMLRIELMDWEGNRAYSQYDRFHIGNEKQNYRLYLKGHTGTAGKQSSLILHGADFSTKDADNDNCMCKCALMLTGGWWFDACGPSNLNGMFYTAGQNHGKLNGIKWHYFKGPSYSLRSTTMMIRPLDFGGGGSETPEGCEQVLTGKRLMQCLPNPEDVKMALEVYKLSLEIEQLELQRDSARQSTLDKELHHHHHH
